Test results reported in patent publication US20210206877A1 (Genentech, published 2021).
Changes are numbered by the printed parent chain.

B1: 5878 (antibody, V domains shown)
VH: EVQLLESGGGLVQPGGSLRLSCAASGFTFSSYAMSWVRQAPGKGLEWVSAISGSGISTPYADSVKGRFTISRDNSKNTLYLQMNSLRAEDTAVYYCAKGAGHGSYVKGWFDPWGQGTLVTVSS
VL: EIVLTQSPATLSLSPGERATLSCRASQSVSSYLAWYQQKPGQAPRLLIYDASNRATGIPARFSGSGSGTDFTLTISSLEPEDFAVYYCQQSVNFPFTFGGGTKVEIK
B2: 5583 (antibody, V domains shown)
VH: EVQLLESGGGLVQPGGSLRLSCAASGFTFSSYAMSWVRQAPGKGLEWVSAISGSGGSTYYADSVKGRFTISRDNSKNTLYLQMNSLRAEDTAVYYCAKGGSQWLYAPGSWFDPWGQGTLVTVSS
VL: B1 VL with Q89V, S91R, V92S, F96W
B3: 5881 (antibody, V domains shown)
VH: B1 VH with S31K
VL: B1 VL
B4: 5880 (antibody, V domains shown)
VH: B1 VH with S30G, S35T
VL: B1 VL
B5: 5532 (antibody, V domains shown)
VH: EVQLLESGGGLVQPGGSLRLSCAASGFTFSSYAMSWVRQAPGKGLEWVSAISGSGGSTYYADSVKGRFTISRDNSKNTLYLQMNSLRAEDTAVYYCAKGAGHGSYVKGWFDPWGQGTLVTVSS
VL: B1 VL with V92S
B6: 5592 (antibody, V domains shown)
VH: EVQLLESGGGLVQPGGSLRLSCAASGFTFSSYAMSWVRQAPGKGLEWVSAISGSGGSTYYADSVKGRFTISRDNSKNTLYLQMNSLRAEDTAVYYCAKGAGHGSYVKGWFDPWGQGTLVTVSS
VL: B1 VL
B7: 5930 (antibody, V domains shown)
VH: QVQLVQSGAEVKKPGSSVKVSCKASGGTLSGYAISWVRQAPGQGLEWMGNIIPGFGTANYAQKSQGRVTITADESTSTAYMELSSLRSEDTAVYYCARSGGTRYGMLDVWGQGTMVTVSS
VL: EIVMTQSPATLSVSPGERATLSCRASQSVGSNLAWYQQKPGQAPRLLIYGASTRATGIPARFSGSGSGTEFTLTISSLQSEDFAVYYCQQLYTWPPRTFGGGTKVEIK
B8: 5983 (antibody, V domains shown)
VH: QLQLQESGPGLVKPSETLSLTCTVSGGSISSSSYYWGWIRQPPGKGLEWIGNIYYSGSTYYNPSLRSRVTISVDTSKNQFFLKLSSVTAADTAVYYCARLGHGYNYFDLWGRGTLVTVSS
VL: EIVLTQSPATLSLSPGERATLSCRASQSVSSYLAWFQQKPGQAPRLLIYDASNRATGIPARFSGSGSGTDFTLTISSLEPEDFAVYYCQQVYVWPPRTFGGGTKVEIK
B9: 5984 (antibody, V domains shown)
VH: B8 VH with R66K, S67G, F81S
VL: B8 VL
B10: 6271 (antibody, V domains shown)
VH: B7 VH with L29I, A33G, S64F, R103K
VL: B7 VL with G30S, Y92I, T93L
B11: 5982 (antibody, V domains shown)
VH: B8 VH with R66K, F81S, N105S
VL: B8 VL
B12: 5987 (antibody, V domains shown)
VH: B7 VH
VL: B7 VL with G30S, Y92F, T93L
B13: 6290 (antibody, V domains shown)
VH: B8 VH with N52M, Y60W, R66K, F81S, L100V, H102L, Y104V, N105S
VL: B8 VL with F36Y, N53K, V93T
B14: 5988 (antibody, V domains shown)
VH: B7 VH
VL: B7 VL with E1G
B15: 6273 (antibody, V domains shown)
VH: B7 VH with L29F, A33G, S64F, R103K
VL: B7 VL with G30S, L33I, Y92L, T93L
B16: 6293 (antibody, V domains shown)
VH: B8 VH with N52M, Y60W, F81S, L100V, Y104V, N105S
VL: B8 VL with F36Y, N53K, V93T
B17: 6275 (antibody, V domains shown)
VH: B7 VH with L29F, S30R, S64F, R103K
VL: B7 VL with G30S, Y92F, T93L
B18: 6289 (antibody, V domains shown)
VH: B8 VH with N52S, Y55R, F81S, A98V, L100V, Y104I, N105S
VL: B8 VL with F36Y, V91S, Y92L, V93T
B19: 5933 (antibody, V domains shown)
VH: B8 VH with S31R, S32G, N52M, Y60W, R66K, F81S, L100V, Y104V, N105S
VL: B8 VL with F36Y, D50G, N53K, V93T
B20: 5931 (antibody, V domains shown)
VH: B8 VH with S31W, G37S, N52S, Y55R, S58R, R66K, S67G, F81S, L100V, Y104I
VL: B8 VL with F36Y, N53K, V93T
B21: 5986 (antibody, V domains shown)
VH: B8 VH with N52Q, Y60F, R66K, F81S, N105S
VL: B8 VL
B22: 5990 (antibody, V domains shown)
VH: B8 VH with S31W, G37S, N52S, Y55R, S58R, R66K, F81S, L100V, Y104I
VL: B8 VL with Q27R, S30N, F36Y, N53K, V93T
B23: 6276 (antibody, V domains shown)
VH: B7 VH with L29F, S30R, F55L, G56S, S64F, R103K
VL: B7 VL with G30S, Y92I, T93L
B24: 6288 (antibody, V domains shown)
VH: B8 VH with I29T, N52S, Y55R, F81S, L100V, Y104I, N105S
VL: B8 VL with F36Y, V91S, Y92L, V93T
B25: 6297 (antibody, V domains shown)
VH: B8 VH with S28P, S67G, F81S
VL: B8 VL
B26: 6296 (antibody, V domains shown)
VH: B8 VH with S67G, F81S
VL: B8 VL
B27: 6285 (antibody, V domains shown)
VH: B8 VH with I29T, N52S, Y55R, R66K, F81S, L100V, Y104I, N105S
VL: B8 VL with F36Y, N53S, V91S, Y92L, V93T
B28: 6279 (antibody, V domains shown)
VH: B7 VH with L29F, S30R, S64F, R103K
VL: B7 VL with G30S, Y92L, T93L
B29: 6294 (antibody, V domains shown)
VH: B8 VH with Y34H, N52M, Y60W, R66K, F81S, L100V, Y104V, N105S
VL: B8 VL with F36Y, N53K, V93T
B30: 6274 (antibody, V domains shown)
VH: B7 VH with L29F, A33G, S64F, R103K
VL: B7 VL with G30S, N32H, Y92I, T93L
B31: 5932 (antibody, V domains shown)
VH: B8 VH with S31R, S32G, N52M, Y60W, R66K, F81S, L100V, Y104I, N105S
VL: B8 VL with F36Y, N53K, V93T
B32: 6270 (antibody, V domains shown)
VH: B7 VH with L29F, A33G, S64F, R103K
VL: B7 VL with G30S, Y92L, T93L
B33: 5985 (antibody, V domains shown)
VH: B8 VH with R66K, F81S
VL: B8 VL
B34: 6291 (antibody, V domains shown)
VH: B8 VH with N52M, Y60W, R66K, F81S, L100V, Y104V, N105S
VL: B8 VL with F36Y, D50G, N53K, V93T
B35: 6272 (antibody, V domains shown)
VH: B7 VH with L29F, A33G, S64F, R103K
VL: B7 VL with G30S, Y92F, T93L
B36: 6280 (antibody, V domains shown)
VH: B8 VH with I29T, N52S, Y55R, L65F, R66K, F81S, L100V, Y104I, N105S
VL: B8 VL with F36Y, V91S, Y92L, V93T
B37: 6298 (antibody, V domains shown)
VH: B8 VH with S31W, G37S, R66K, F81S
VL: B8 VL

Columns and labels:
Experiment in all cases: cell-based or functional assay
murine BACE1 ECD = target: murine BACE1 ECD
Chain of murine BACE1 ECD (single chain, as listed by the source limits assumed): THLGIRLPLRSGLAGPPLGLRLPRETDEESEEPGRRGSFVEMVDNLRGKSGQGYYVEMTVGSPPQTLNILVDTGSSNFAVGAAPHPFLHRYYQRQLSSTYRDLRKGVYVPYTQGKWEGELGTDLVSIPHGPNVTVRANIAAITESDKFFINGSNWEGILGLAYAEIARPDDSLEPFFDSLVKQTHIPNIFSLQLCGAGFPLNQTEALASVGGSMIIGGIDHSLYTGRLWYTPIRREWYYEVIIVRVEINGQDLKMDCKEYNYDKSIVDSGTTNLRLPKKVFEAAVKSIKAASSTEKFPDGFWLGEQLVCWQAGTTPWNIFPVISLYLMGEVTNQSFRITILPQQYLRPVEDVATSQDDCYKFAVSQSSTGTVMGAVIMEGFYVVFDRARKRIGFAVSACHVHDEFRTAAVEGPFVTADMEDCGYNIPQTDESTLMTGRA

human BACE1 ECD = human BACE1 ECD (human, UniProt P56817)
Chain of human BACE1 ECD (P56817 22-457): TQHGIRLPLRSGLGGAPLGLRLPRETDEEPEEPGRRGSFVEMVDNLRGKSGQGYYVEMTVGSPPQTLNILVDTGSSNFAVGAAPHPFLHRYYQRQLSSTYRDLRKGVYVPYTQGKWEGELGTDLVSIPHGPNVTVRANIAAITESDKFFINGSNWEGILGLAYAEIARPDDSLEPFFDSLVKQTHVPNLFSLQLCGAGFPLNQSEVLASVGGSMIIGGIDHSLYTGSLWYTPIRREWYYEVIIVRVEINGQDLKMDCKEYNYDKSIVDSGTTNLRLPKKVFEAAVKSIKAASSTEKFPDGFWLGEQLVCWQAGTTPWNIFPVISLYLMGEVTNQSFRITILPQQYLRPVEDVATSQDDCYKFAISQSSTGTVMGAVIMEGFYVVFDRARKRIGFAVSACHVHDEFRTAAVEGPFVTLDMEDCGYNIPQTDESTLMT

[1] = target: BACE1 ECD (as used in the enzyme activity assay) (UniProt P56817 22-457, limits assumed)
Chain of BACE1 ECD (as used in the enzyme activity assay) (P56817 22-457 limits assumed): as the sequence (P56817 22-457) above

[2] = target: BACE1 endogenous to primary cortical neurons from E16.5 CD1 mice (mouse, UniProt P56818 46-501)
Chain of BACE1 endogenous to primary cortical neurons from E16.5 CD1 mice (P56818 46-501): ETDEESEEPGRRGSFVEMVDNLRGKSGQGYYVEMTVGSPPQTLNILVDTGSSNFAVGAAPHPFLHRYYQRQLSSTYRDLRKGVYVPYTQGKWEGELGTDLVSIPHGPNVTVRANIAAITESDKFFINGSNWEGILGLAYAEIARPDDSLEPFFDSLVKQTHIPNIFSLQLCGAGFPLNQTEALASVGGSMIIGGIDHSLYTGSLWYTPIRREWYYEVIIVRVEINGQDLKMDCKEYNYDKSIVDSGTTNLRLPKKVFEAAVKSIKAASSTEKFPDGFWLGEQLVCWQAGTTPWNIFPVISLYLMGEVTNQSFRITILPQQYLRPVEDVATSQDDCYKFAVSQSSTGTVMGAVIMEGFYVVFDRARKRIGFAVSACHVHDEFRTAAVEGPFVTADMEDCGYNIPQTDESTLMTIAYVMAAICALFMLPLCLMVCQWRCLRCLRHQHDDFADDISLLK
Wherever % inhibition, FRET short substrate assay (negative = activation) is given: test concentration or dose not given here.

Binder | max % inhibition, Abeta x-40 in mouse cortical neurons [2] | other results
B1 |  | % inhibition, FRET short substrate assay (negative = activation) (murine BACE1 ECD): 98%; % inhibition, FRET short substrate assay (negative = activation) (human BACE1 ECD): 99%; EC50, FRET short substrate assay [1]: 24.3 nM; EC50, HTRF long substrate assay [1]: 164 nM
B2 |  | % inhibition, FRET short substrate assay (negative = activation) (murine BACE1 ECD): 34%; % inhibition, FRET short substrate assay (negative = activation) (human BACE1 ECD): 44%; EC50, FRET short substrate assay [1]: 9.72 nM; EC50, HTRF long substrate assay [1]: 172 nM
B3 |  | % inhibition, FRET short substrate assay (negative = activation) (murine BACE1 ECD): 98%; % inhibition, FRET short substrate assay (negative = activation) (human BACE1 ECD): 97%; EC50, FRET short substrate assay [1]: 5.93 nM; EC50, HTRF long substrate assay [1]: 33.7 nM
B4 |  | % inhibition, FRET short substrate assay (negative = activation) (murine BACE1 ECD): 97%; % inhibition, FRET short substrate assay (negative = activation) (human BACE1 ECD): 99%; EC50, FRET short substrate assay [1]: 7.88 nM; EC50, HTRF long substrate assay [1]: 171 nM
B5 |  | % inhibition, FRET short substrate assay (negative = activation) (murine BACE1 ECD): 50%; % inhibition, FRET short substrate assay (negative = activation) (human BACE1 ECD): 56%; EC50, FRET short substrate assay [1]: 52.3 nM; EC50, HTRF long substrate assay [1]: 104 nM
B6 |  | % inhibition, FRET short substrate assay (negative = activation) (murine BACE1 ECD): 60%; % inhibition, FRET short substrate assay (negative = activation) (human BACE1 ECD): 63%; EC50, FRET short substrate assay [1]: 95.9 nM; EC50, HTRF long substrate assay [1]: 189 nM
B7 | 74% | 
B8 | 72% | 
B9 | 70% | 
B10 | 83% | 
B11 | 71% | 
B12 | 69% | 
B13 | 63% | 
B14 | 75% | 
B15 | 82% | 
B16 | 75% | 
B17 | 71% | 
B18 | 74% | 
B19 | 67% | 

Binder | max % inhibition, Abeta x-40 in mouse cortical neurons [2] | other results
B20 | 69% | 
B21 | 67% | 
B22 | 61% | 
B23 | 81% | 
B24 | 67% | 
B25 | 63% | 
B26 | 62% | 
B27 | 57% | 
B28 | 71% | 
B29 | 59% | 
B30 | 85% | 
B31 | 57% | 
B32 | 85% | 
B33 | 73% | 
B34 | 68% | 
B35 | 82% | 
B36 | 65% | 
B37 | 67% | 
